Assay: yeast display, Sf9 membrane polyspecificity reagent, FACS + sequencing; frameworks hold sequencing errors
Procedure, shortened: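 Using colony PCR, genes from sorted yeast display clones were amplified, then sequenced on MiSeq at 2 × 250 and filtered by CDR length. The clones had been stained with 10% biotinylated, detergent-solubilized Sf9 membrane reagent for 1 hour at 4 °C and sorted by FACS into low and high (top ~1%) gates on anti-HA and streptavidin fluorescence. Polyreactivity labels come from the gate of origin.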

| Sequence | polyreactivity (PSR sort gate) |
| --- | --- |
| QVQLVESGGGLVEAGGSLRLSCAASGFTFRQYAMGWYRQAPGKEWELVAAISSGGSTYYADSVKGRFTISRDNAKNTDYVQMNSLKPEDTAVYYCAATHWAYSRVPYDYWGQGTQVTVSS | high polyreactivity |
| QVQLVESGGGLVEAGGSLRLSCAASGIIFVYNAMGWSRKAPGKERELVADINWRGDGTYYSDSVKGRFTISPDNAKNTVYLQMNSLKPEDTAVYYCNAVRFRPNSHYRPVGYEYWGQGTQVTESS | low polyreactivity |
| QVQLVESGGGLVEAGGSLRLSCAASGLTFEVYAMGWYRHAPGKERELVAVITSVGSTNYADSVKGRFTISRDNAKNTVYLQMNSLKPEDTAVYYCAADKWTVRRFNPYTYYRYDYWGQGTQVTVSS | low polyreactivity |
| QVQLVESGGGLVEAGGSLRLSCAASGRIFVHNAMGWYRHAPGKERELVAVITYSGGRTYYADSVKGRFTISRDNAKNTVYLQMNSLKPEDTAVYYCAVRAYKVSRYYYWGQGTLVTVSS | low polyreactivity |
| QVQLVESGGGLVEAGGSLRLSCAASGRTFGTYPMGWYRQAPGKERELVAAISSRGGTTYYADSVKGRFTISRDNAKNTVYLQMNSLKPEDTEVYYCARASWSITTVLSTMDYWGQGTQVTVSS | high polyreactivity |
| QVQLVESGGGLVEAGGSLRLTCAASGIIFYQYAMGWYRQAPGKERELVAAISSRGGSTYYADSVKGRFTISRDNAKNTVYLQMNSLKPEDTAVYYCAAGSTRSTDGYWGQGTQVTVSS | high polyreactivity |
| QVQLVESGGGLVHAGGILRLSCAASGRIFDYNVMGWYRQAPGKERELVADINGSGGGTNYADSVKGRFTISRDNAKNTVYLQMNSLKPEDTAVYYCAAEWYSYGARSSYGGSRNDYWGHGTQVTVSS | low polyreactivity |
| QVQLVESGGGLVHAGGILRLSCAASGSTFTPNAMGWYRQAPGKEREFVAAITYSGGTTYNADSVKGRFTISRDNAKKTVYLQRNRLKPEDTAVYYCAAVYFLLYYEAYYYWGQGTQVNVSS | low polyreactivity |
| QVQLVESGGGLVHAGGPLRLSCAASGFTFGEYAMGWYRPAPGKERELVAAITWSVGSTYYADSVKGRFTISRDNAKNTVYLEMNSLKPEDTAVYYCAAVLNWSRYGYWGQGTQVTVSS | low polyreactivity |
| QVQLVESGGGLVHAGGRLRLSCAASGRIFGRNAMGWYRPPPGKERELVAAITKSGGRTYYADSVKGRFSISRVNAKNNVYFQMICLKPEDNAVYYCNRIVTFGWQYDFDFWGQGTQVTVSS | high polyreactivity |
| QVQLVESGGGLVHAGGRLRLSCAAYGITFSSYAMGWYRQAPGKERELVAAITWSGTSTYYADSVKGRFTISRDNAKNTVYLQMNSLKPEYTAVSYCADEAGAPFSISHDYWGQGTQVTVSS | low polyreactivity |
| QVQLVESGGGLVHAGGSHRLSCAASGTMGCYRQAPGKEMELVAAISQSGGSTYYADSVKGRFTISRDNAKNTVYLQMNSLKPEATAVYYCAVDPRYGHPRRDYWGQGTQVTVSS | low polyreactivity |
| QVQLVESGGGLVHAGGSIRLSCSASRRIFGYNVMGWYRQAPGKERELVAAITSGDRTYYADSVKGRFTISRDNAKHTVYLQMNSLKPEDTAVYYCAARGDRRRYGSLMDSWGQGTQVTVSS | high polyreactivity |
| QVQLVESGGGLVHAGGSLRLSCAACGRIFGPYDMGWYRQAPGKEMELVAAISWSGGNTYYADSVKGRFTISLDNAKNTVYLQMNSLKPEDTAVYYCNADYYPSSYPYDYWGQGTQVTVSS | low polyreactivity |
| QVQLVESGGGLVHAGGSLRLSCAASGFIFAYYAMGWYRQAPGKERELVAAIDSAGRTTYADSVKGRFTISRDNAKNSVYLQMNSLKPEDTAVYYCAKFTPSVYKLSLQQGYDYWGQGNQVTVSS | high polyreactivity |
| QVQLVESGGGLVHAGGSLRLSCAASGFIFKRYPMGWNRPAHGKERELVAVITRSGGSTYYADSVKGRFTISRDNAKNTVYLQMNSLKPEDTAVYYCAAQGLLKFYWGQGTQVTVSS | high polyreactivity |
| QVQLVESGGGLVHAGGSLRLSCAASGFIFPGNAMGWYIQAPGKERDLVAAISNSGSRTYYADSVKGRFTISRDNAKNTVYLQMISLKPEDTAVYYCNADVHNRGWPYDYWGQGTQVTVSS | low polyreactivity |
| QVQLVESGGGLVHAGGSLRLSCAASGFIFWDYAMGWYRQAPGKERELVAAISDSGGDTYYADSVKGRFTISRDNAKNTVNLQMNRLKPEDTAVYYCAAYSPSSRFDRRGYWGQGNQVTVSS | low polyreactivity |
| QVQLVESGGGLVHAGGSLRLSCAASGFIFYGNAMGWYRQAPGKERELVAAITWSSGSTYYADSVKGRFTISRYNAKNTVYLQMNSLSPEDTAVYYSNSEWSAKRPYPSRYYFNLGYWGQGTQVTESS | high polyreactivity |
| QVQLVESGGGLVHAGGSLRLSCAASGFILYSYAMGWYRQAPGKERELVAAINSTGSTYYADSVKGRFTISRDNAKNTVYLQMNSLKPEDTAFYYCATDPWYQTDLSYDTPYYYWGQGKQVTVSS | low polyreactivity |
| QVQLVESGGGLVHAGGSLRLSCAASGFTFAGYAMGWYRQAPGKERELVAGIRSSGARTYYADSVKGRFTISRDNAKNTVYLQMNSLKPDDTAVYYCAKTDGFYGGYGYWGQCTQVTVSS | low polyreactivity |
| QVQLVESGGGLVHAGGSLRLSCAASGFTFGPYAMGWYRQAPRKERELVAAITGSGGITYYADSVKGRFTISRDNAKNTVYLQKNSLKPEDTAVYYCAAEYPYVYGTYSDSYTEYDYWGQGTQVTVSS | low polyreactivity |

| Sequence | polyreactivity (PSR sort gate) |
| --- | --- |
| QVQLVESGGGLVHAGGSLRLSCAASGFTFRSYAMGWYRQAPGKERELVAAISWSGGSTYYADSVKGRYTISRDNAKNTVYLQMNSLKPEDTAVYYCAAVRVSKYDYWGQGTQVTVSS | high polyreactivity |
| QVQLVESGGGLVHAGGSLRLSCAASGFTIPYYAMGWYRQAPGKERELVAAIRISGGSTYYADSVKGRFTISRDNAKNTVYLQMNSLKPEDTAVYYCAADYRYRSRFYYWGQGTQVTVSS | low polyreactivity |
| QVQLVESGGGLVHAGGSLRLSCAASGGIFSWNTMGWYRQAPGKERELVAAINWSSGRTYYADSVKGRFTISRDNAKYTVYLQMNSLKPEDTAVYYCAAKYYGSRKYDYWGQGTQVTVSS | high polyreactivity |
| QVQLVESGGGLVHAGGSLRLSCAASGGIFYVNAMGWYRQAPGKERELVADIRYSGTSTYYADSVKGRFTISRDNAKNTVYLQMNSLKPEDTAVYYCAVDAWDTTHVYEQGAERDSWGQGTQVTVSS | low polyreactivity |
| QVQLVESGGGLVHAGGSLRLSCAASGIIFDDYAMGSYRQPPGKERELVAAISGRGGRTYYADSVKGRFTISRDNAKNTVYLQMNSLKPEDTAVYYCAGGGRVRYDYWGQGTQVTVSS | low polyreactivity |
| QVQLVESGGGLVHAGGSLRLSCAASGIIFGSYAMGWYRQAPGKERELVAAITRSGGRTYYADSVKGRFTISRDNAKNTVYLQMNSLKPEDTAVYYCAADRGYRGATGKYDSWGQGTEVTVSS | high polyreactivity |
| QVQLVESGGGLVHAGGSLRLSCAASGIIFPYNLMGWYRQAPGKERELVADITRGAASTYYADSVKGRFTISRVNAKNTVYFQMNRLKTEDTAVYFCNADGTWRTYNFWGQGTQVTVSS | high polyreactivity |
| QVQLVESGGGLVHAGGSLRLSCAASGIISGWNGMGWYRQAPGKERELVASIDKNGSTYYADSVKGRCTISRDNAKNTVYLQMISLKPEDTAVYYCASDVRYRGNREDYWGQGTQVNVSS | low polyreactivity |
| QVQLVESGGGLVHAGGSLRLSCAASGITFKWNDMGWYRQAPGKEREFVAAITGSTGSTFYADSVKGRFTISRDNAKNTVYLQMNSLKPEDTAVYYCAAGPWFYYWGQGTQVTVSS | low polyreactivity |
| QVQLVESGGGLVHAGGSLRLSCAASGLIFRAYAMGWYRQAPGKERELVAAITSSSGSTYYADSVKGRFTISRDIAKNTVYLEMNSLKPEDTAVSYCNAYSTFGWYDYWGQGTQVTVSS | low polyreactivity |
| QVQLVESGGGLVHAGGSLRLSCAASGRIFDGNTMGWYRQAPGKERELVAAISGGGSTDYADSVKGRFTISRDNAKNTVYLQMNSLKPEDTAVYYCAATTGPVPLKGDYWGQGTQVTVSS | low polyreactivity |
| QVQLVESGGGLVHAGGSLRLSCAASGRIFKNYVMGWYRQAPGKERELVAGISSSGGSTYYADSVKGRFTISRYNAKNTVYLQMNSLKPEDTAVYYCAADYTFAYYNFKMDYWGQVTQVTVSS | low polyreactivity |
| QVQLVESGGGLVHAGGSLRLSCAASGRIFKSYAMGWYRQAPGKEREFVAAISTRSSSTYYADSVKGRFTISRDNAKNTVYLQMNSLKPEDTAVYYCAKVYQTLPYYYPGDYWGQGTQVNVSS | low polyreactivity |
| QVQLVESGGGLVHAGGSLRLSCAASGRIFLYYVMGWYRQAPGKERELVAAITSGGSTYYADSVKGRFTISRDNAKNTVYLQMNSLKPEDTAVYYCNKVSYYRNEYWGQGTQVTVSS | high polyreactivity |
| QVQLVESGGGLVHAGGSLRLSCAASGRTFCGYAMGRYRHAPGKERELVATNSYSSGSTYYADSVKGRFTISRDNAMNTVYLQMNSLTPEDTAVYYCAARIRYFYRYDYWGQGTQVTVSS | high polyreactivity |
| QVQLVESGGGLVHAGGSLRLSCAASGRTFKIYAMGWYRQAPGKERELVATISWRGGSTYYADSVKGRFTISRDNAKNTVYLQMNSLKPEDTAVYYCAKALYVAGSAYRAGYGVRYDYWGQGTQVTVSS | low polyreactivity |
| QVQLVESGGGLVHAGGSLRLSCAASGRTFPTNAMGWYRQSPGKDRELVAAISWSGGGTYYADSVKGRFTISRDNAKNTIYLQMNSLKPEDTAVYYCAADDTPDTIYGSDYWGQGTQVTVSS | low polyreactivity |
| QVQLVESGGGLVHAGGSLRLSCAASGRTFRDNVMGWSRQAPGKERELVAAISRSGGSTYYADSVKGRFTISRDNAKHTVYLQMNSQKPEDTAVYYSNAPYYVRSQYTFDYWGQGTQVTVSS | high polyreactivity |
| QVQLVESGGGLVHAGGSLRLSCAASGRTFRYYTMGWYRQAPGKEREFVAAISSTGGTYYADSVKGRFTISRDNAKNTVYLQMNSLKPEDTAVYYCAATFIQVVVNVQLYDYDYWGQGTQVTVSS | low polyreactivity |
| QVQLVESGGGLVHAGGSLRLSCAASGSIFFIYAMGGYRPAPGTERELVARISQGGASPYYADSVKGRFTISRDNAKTTVYLQMNSLKPEDTVVYYCAAGYTNTRLRPKGYGYYYWGQGTQVTVSW | high polyreactivity |
| QVQLVESGGGLVHAGGSLRLSCAASGSIFFQYGMGWYRHAPGKEREYVAAISVSGGSTYYADSVKGRFTISRDNAKNSVYLQMNSLKPEDTAVYYCAADGSTDYVYSPPIDEYDFWGQGTQVTVSS | low polyreactivity |
